In assay [1] the target is T1, human LIV-1 (human, UniProt Q13433 29-755).
T1 construct: whole, on cells; also called H-LIV1
T1 sequence (looked up): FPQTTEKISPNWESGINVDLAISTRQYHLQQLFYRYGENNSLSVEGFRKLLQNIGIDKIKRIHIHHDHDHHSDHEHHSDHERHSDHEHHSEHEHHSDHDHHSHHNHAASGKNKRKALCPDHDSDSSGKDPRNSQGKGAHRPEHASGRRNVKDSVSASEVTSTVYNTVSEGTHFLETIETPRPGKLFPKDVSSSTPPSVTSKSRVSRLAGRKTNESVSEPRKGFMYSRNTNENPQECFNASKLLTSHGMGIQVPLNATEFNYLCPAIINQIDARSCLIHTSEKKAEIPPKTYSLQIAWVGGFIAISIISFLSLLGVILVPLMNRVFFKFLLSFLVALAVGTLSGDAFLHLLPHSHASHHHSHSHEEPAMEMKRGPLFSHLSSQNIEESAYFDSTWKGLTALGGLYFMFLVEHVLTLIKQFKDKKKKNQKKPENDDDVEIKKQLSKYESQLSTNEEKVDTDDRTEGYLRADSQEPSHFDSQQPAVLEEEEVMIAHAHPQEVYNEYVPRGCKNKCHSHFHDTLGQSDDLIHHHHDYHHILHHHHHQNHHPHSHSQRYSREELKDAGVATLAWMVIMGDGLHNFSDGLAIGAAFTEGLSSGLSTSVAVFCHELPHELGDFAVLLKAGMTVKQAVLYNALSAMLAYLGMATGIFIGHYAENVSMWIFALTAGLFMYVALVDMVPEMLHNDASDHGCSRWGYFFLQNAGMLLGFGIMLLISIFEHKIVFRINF
Kind of assay: FACS, HEK293/H_LIV-1 cells. Here is the method: (§1) Cell based binding of ADC and naked of ADC on human LIV-1 expressing cells were assessed using flow cytometry. Briefly, HEK293/H_LIV-1, both low- and high-expressing H-LIV1-positive cell lines were incubated with ADC and naked of ADC (from 100 nM, 6 folds dilution, 8 points), respectively. After incubation at 4° C. for 60 minutes, the cells were washed with FACS buffer twice, then stained with fluorescent conjugated secondary antibody at 4° C. for 30 minutes. After that the cells were washed twice and analyzed by flow cytometry.
Background: Flow cytometry measures light scatter and fluorescence of single cells or particles in a stream.

Assay [2] has as its target T2, cynomolgus LIV-1 (cynomolgus, UniProt A0A2K5WH46 30-741). Nature of the assay: FACS, HEK293/Cyno_LIV-1 cells. Here is the method:
(§2) Cell based binding of optimal leads to different species LIV-1 expressing cells were assessed using flow cytometry. Briefly, the cells were incubated with optimal leads (from 100 nM, 6 folds dilution, 8 points). After incubation at 4° C. for 60 minutes, the cells were washed with 2% FBS/PBS buffer twice, then stained with fluorescent conjugated secondary antibody at 4° C. for 30 minutes. After that the cells were washed twice and resuspended in 80 μL of 2% FBS/PBS buffer. Fluorescent signal of binding was detected using Agilent. The EC50 was calculated using the GraphPad Software (LaJolla, CA).
Target sequence in this assay (A0A2K5WH46 entry or part of it): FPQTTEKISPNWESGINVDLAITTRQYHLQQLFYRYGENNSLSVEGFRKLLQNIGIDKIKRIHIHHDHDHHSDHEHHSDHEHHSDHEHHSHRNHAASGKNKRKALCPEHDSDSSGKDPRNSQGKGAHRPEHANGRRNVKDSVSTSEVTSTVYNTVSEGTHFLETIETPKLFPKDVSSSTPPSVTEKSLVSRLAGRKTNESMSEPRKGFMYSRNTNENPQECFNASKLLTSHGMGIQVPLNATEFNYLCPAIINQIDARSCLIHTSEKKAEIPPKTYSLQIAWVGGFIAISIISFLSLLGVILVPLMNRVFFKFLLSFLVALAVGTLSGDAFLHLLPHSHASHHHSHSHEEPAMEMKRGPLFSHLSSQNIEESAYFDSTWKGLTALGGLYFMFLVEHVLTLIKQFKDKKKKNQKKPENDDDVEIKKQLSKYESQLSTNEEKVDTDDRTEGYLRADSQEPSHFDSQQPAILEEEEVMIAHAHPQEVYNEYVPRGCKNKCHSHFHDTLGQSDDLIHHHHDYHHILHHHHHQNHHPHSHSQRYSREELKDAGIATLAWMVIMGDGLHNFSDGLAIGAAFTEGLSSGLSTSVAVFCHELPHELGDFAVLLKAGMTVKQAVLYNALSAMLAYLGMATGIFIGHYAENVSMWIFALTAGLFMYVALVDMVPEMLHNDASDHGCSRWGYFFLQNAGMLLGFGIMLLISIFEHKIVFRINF

Assay [3] addresses T1, human LIV-1. Nature of the assay: FACS, HEK293/H_LIV-1 cells. In short, it runs like this: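 HEK293 cells expressing human LIV-1 incubated with humanized antibodies (from 100 nM, 6-fold dilutions, 8 points) at 4 °C for 60 min. Bound antibody detected with a fluorescent secondary antibody (4 °C, 30 min) by flow cytometry.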
This is another data set of the same source.

For another assay, the target named is T3, mouse LIV-1 (mouse, UniProt Q8C145 21-765).
T3 construct: whole, on cells
T3 sequence (looked up): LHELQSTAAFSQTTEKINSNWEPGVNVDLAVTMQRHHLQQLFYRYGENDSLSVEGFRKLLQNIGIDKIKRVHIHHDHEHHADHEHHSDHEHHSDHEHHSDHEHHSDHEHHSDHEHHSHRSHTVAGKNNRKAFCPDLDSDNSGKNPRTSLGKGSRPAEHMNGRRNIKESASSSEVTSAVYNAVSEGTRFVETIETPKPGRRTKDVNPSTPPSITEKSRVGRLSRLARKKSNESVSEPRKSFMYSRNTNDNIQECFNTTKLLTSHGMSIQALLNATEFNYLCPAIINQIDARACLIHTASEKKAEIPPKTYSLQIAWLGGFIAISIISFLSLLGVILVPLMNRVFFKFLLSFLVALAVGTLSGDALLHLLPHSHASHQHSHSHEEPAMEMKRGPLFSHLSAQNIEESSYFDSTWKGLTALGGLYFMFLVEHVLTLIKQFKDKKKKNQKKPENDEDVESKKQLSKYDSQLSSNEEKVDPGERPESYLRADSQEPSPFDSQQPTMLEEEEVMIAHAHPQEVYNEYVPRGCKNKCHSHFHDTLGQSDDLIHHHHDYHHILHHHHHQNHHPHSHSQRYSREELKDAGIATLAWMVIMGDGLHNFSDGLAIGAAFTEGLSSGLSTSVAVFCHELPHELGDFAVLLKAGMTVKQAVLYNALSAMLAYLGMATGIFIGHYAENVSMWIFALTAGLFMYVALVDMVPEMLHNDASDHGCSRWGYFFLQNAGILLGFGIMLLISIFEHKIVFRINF
Kind of assay: FACS, HEK293/Mouse_LIV-1 cells. As to the method:
(§3) Humanized antibodies 5D6B10.z7, 124H4D11.p2.z4 and 290F10G10.p1.z2 were selected for further testing. In this example, FACS cross binding of these selected antibodies to LIV-1 of different species were assessed using flow cytometry.
as §2

Assay [4] deals with T1, human LIV-1. Nature of the assay: FACS, BT20/H_LIV-1 High cells. As to the method:
as §1

Another assay deals with rhesus LIV-1 (rhesus, UniProt H9FSJ2 30-735). Kind of assay: FACS, HEK293/Rhe_LIV-1 cells. Here is the method:
as §3, §2

For assay [5], the target named is T2, cynomolgus LIV-1. Nature of the assay: FACS, HEK293/Cyno_LIV-1 cells. This is another data set of the same source.
Target sequence in this assay (A0A2K5WH46 entry or part of it): as the sequence (A0A2K5WH46 entry or part of it) above
Assay [6] deals with T1, human LIV-1. Kind of assay: cell-based or functional assay.
Another assay deals with T4, rat LIV-1 (rat, UniProt Q4V887 21-741).
T4 construct: whole, on cells
T4 sequence (looked up): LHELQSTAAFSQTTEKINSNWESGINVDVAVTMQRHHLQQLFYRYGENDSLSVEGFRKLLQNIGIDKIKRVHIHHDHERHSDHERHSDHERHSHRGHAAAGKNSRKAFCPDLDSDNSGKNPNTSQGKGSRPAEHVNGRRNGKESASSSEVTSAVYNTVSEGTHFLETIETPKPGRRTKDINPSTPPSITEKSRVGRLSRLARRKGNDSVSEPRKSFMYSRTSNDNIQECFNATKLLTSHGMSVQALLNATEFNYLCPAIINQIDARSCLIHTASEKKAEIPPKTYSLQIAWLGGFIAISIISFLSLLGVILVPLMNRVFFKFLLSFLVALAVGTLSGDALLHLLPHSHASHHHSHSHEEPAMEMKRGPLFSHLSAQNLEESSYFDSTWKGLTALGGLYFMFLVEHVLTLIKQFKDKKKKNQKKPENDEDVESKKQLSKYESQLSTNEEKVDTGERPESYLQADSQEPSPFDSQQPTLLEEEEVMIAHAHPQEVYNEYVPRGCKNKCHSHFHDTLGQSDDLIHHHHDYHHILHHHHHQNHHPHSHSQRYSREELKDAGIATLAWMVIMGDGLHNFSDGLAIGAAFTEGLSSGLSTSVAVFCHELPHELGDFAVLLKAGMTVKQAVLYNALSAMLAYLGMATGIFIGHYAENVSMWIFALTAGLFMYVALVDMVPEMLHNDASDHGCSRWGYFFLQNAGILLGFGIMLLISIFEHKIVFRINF
Kind of assay: FACS, HEK293/Rat_LIV-1 cells. As to the method:
as §3, §2

Assay [7] has as its target T1, human LIV-1. Kind of assay: FACS, BT20/H_LIV-1 Low cells. As to the method: as §1
For assay [8], the target named is T1, human LIV-1. Kind of assay: cell-based or functional assay. This is another data set of the same source.
In assay [9] the target is T1, human LIV-1. Nature of the assay: FACS, HEK293/H_LIV-1 cells. In short, it runs like this:
(§4)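 HEK293 cells over-expressing human or cyno LIV-1 incubated with chimeric Abs (from 100 nM, 5-fold dilutions, 8 points) for 60 min at 4 °C, then fluorescent secondary antibody 30 min at 4 °C; washes in 2% FBS/PBS. Binding read by flow cytometry; EC50 from the titration curve.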
This is another data set of the same source.

Assay [10] deals with T2, cynomolgus LIV-1. Nature of the assay: FACS, HEK293/Cyno_LIV-1 cells. The procedure, abridged:
as §4
The source holds these as a separate data set.

For assay [11], the target named is T1, human LIV-1. Nature of the assay: cell-based or functional assay. The source holds these as a separate data set.
Assay [12] has as its target T1, human LIV-1. Kind of assay: cell-based or functional assay. The source holds these as a separate data set.

Like-named read-outs stand apart in the source and are kept apart here.

In general, EC50 refers to the concentration needed to bring the measured effect to its halfway point.

Sequence of rhesus LIV-1 (H9FSJ2 entry or part of it): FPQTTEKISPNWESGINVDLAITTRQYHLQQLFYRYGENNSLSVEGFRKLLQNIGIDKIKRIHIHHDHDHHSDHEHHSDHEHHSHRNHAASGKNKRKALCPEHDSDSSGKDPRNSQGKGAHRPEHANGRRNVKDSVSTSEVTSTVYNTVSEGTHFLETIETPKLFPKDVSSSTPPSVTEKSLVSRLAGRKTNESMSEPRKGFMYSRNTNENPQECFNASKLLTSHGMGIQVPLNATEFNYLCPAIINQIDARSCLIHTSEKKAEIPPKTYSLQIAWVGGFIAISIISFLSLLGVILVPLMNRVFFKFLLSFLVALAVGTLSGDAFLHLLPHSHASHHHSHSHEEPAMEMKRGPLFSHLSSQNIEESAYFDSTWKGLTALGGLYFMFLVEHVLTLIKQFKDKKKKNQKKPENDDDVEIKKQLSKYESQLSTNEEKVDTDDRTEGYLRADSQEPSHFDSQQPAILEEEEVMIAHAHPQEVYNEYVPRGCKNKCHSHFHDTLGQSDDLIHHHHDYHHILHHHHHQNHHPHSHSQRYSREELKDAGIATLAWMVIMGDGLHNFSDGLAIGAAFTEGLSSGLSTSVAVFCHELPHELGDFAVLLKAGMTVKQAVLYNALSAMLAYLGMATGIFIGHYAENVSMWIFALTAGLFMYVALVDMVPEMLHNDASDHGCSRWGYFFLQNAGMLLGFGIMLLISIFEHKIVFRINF

B1: 124H4D11.p2.z4 (antibody, V domains shown)
VH: QVQLVQSGAEVVKPGASVKVSCKASGFNIKDYYMHWVRQAPGQGLEWIGWIDPENDDTEYDPKFQGRVTMTADTSTSTVYMELSSLRSEDTAVYYCAARYYAFDYWGQGTMVTVSS
VL: DVLMTQSPLSLPVTLGQPASISCRSSQSIVHSNANTYLEWYLQRPGQSPRLLIYKVSNRFSGVPDRFSGSGSGTDFTLKISRVEAEDVGVYYCFQGSQVPPTFGQGTKLEIK
Take B1: the EC50 with human LIV-1 [1] is 160 pM; with cynomolgus LIV-1 [2] it was 90 pM; in the assay with human LIV-1 [3] it was 130 pM; with human LIV-1 [4], 150 pM; with rhesus LIV-1, 70 pM; with cynomolgus LIV-1 [5], 130 pM. Moreover, the EC50 with human LIV-1 [7] came to 170 pM. Further, the “Top (MFI)” value was found to be 19900 MFI with human LIV-1 [1]; 1420 MFI with cynomolgus LIV-1 [2]; 16900 MFI with human LIV-1 [3]; 107 MFI in the assay with mouse LIV-1; 20800 MFI with human LIV-1 [4]; 5420 MFI in the assay with rhesus LIV-1. Besides, the “Top (MFI)” value was found to be 8840 MFI in the assay with cynomolgus LIV-1 [5], 106 MFI in the assay with rat LIV-1 and 3460 MFI with human LIV-1 [7]. Also, the binding result with mouse LIV-1 and in the assay with rat LIV-1 was “no binding (tested: 100 nM)” each time. Further, in the assay with human LIV-1 [6], the “Internalization EC50” value came out at 5600 pM. Also, in the assay with human LIV-1 [6], the “Internalization Top (MFI)” value came out at 139000 MFI.

B2: 290F10G10 (antibody, V domains shown)
VH: IQLQQSGAELARPGASVKLSCKASGYTFTSYWIHWVKERPGQGLEWIGTIYPGDGDTRSTQKFKDKATVTAEKSSSTVYMQLSSLASEDSAVYYCTRSLIHDDYDKYYFDYWGQGTTLTVSS
VL: DIQMTQSPSSLSASLGGKVTITCKARQDINKYIAWYQHKPGKGPRLLIHYTSILQPGIPSRFSGSGSGRDYSFSISNLEPEDIATYYCLQYDYFFTFGSGTKLEIK
notes: Tested as chimeric antibody
For B2, the “Cell viability(%)” value with human LIV-1 [8] was 3.46%. For the same molecule, in the assay with human LIV-1 [8], the “Cytotoxicity IC50” value came out at 1330 pM. For the same molecule, the EC50 with human LIV-1 [9] was found to be 380 pM; in the assay with cynomolgus LIV-1 [10], 530 pM; with cynomolgus LIV-1 [2], 260 pM; in the assay with mouse LIV-1 it was 51100 pM; with rhesus LIV-1, 220 pM; with rat LIV-1, 72200 pM. Also, the “Top (MFI)” value stood at 9570 MFI with human LIV-1 [9]; 2940 MFI with cynomolgus LIV-1 [10]; 1560 MFI with cynomolgus LIV-1 [2]; 5550 MFI with mouse LIV-1; 5270 MFI in the assay with rhesus LIV-1; 6820 MFI in the assay with rat LIV-1. Moreover, the “Internalization EC50” value in the assay with human LIV-1 [11] turned out to be 3500 pM. In addition, the “Internalization Top (RFU)” value in the assay with human LIV-1 [11] is 298000 RFU. Also, in the assay with human LIV-1 [12], the “ADCC reporter EC50” value is 400 pM. The “ADCC reporter Top (RFU)” value with human LIV-1 [12] was determined as 177000 RFU.

B3: 5D6B10.Z7 (antibody, V domains shown)
VH: QVQLVQSGGGVVQPGRSLRLSCTVSGFSLTTYGIHWVRQSPGKGLEWLGVIWTGGTTDYNAAFISRLTISKDNSKSTVYFQMNSLQAEDTAIYYCARGPSSYWGQGTLVTVSS
VL: EIVMTQSPATLSVSPGERATLSCKASQNVDTNVVWYQQKPGQSPRALIYSASYRYSGVPARFSGSGSGTEFTLTISSLQSEDFAVYFCQQYNNYPWTFGQGTKVEIK
For the molecule B3, the 50% effective concentration (EC50) with human LIV-1 [1] amounted to 690 pM; with cynomolgus LIV-1 [2], 550 pM; with human LIV-1 [3], 220 pM; in the assay with human LIV-1 [4], 1060 pM; in the assay with rhesus LIV-1 it was 300 pM; in the assay with cynomolgus LIV-1 [5], 190 pM. Besides, the response with human LIV-1 [7] was half-maximal at 510 pM (EC50). In addition, the “Top (MFI)” value with human LIV-1 [1] turned out to be 102000 MFI; in the assay with cynomolgus LIV-1 [2], 13900 MFI; with human LIV-1 [3], 50700 MFI; with mouse LIV-1 it was 162 MFI; in the assay with human LIV-1 [4], 152000 MFI; with rhesus LIV-1 it was 41000 MFI. The figures for the “Top (MFI)” value with cynomolgus LIV-1 [5], with rat LIV-1 and with human LIV-1 [7] were 20400 MFI, 255 MFI and 34700 MFI, respectively. Further, the binding result with mouse LIV-1 and in the assay with rat LIV-1 was “no binding (tested: 100 nM)” in each case. Besides, in the assay with human LIV-1 [6], the “Internalization EC50” value worked out at 5700 pM. Besides, in the assay with human LIV-1 [6], the “Internalization Top (MFI)” value worked out at 59100 MFI.
